Measurements taken from patent publication US20060104980A1.

Assays:
[1] = biological target: HCV 1b E2 deletion construct pDC-644 (Hepatitis C virus genotype 1b); assay: GNA capture ELISA, HEK-293 extracts
[2] = biological target: HCV 1b E2 construct sf1b-E2 (amino acids 384-661 in pDisplay) (influenza virus; Hepatitis C virus genotype 1b); assay: GNA capture ELISA, HEK-293 extracts
[3] = biological target: HCV 1b E2 construct sf1b-E2 (amino acids 384-661 in pDisplay) (influenza virus; Hepatitis C virus genotype 1b); assay: flow cytometry, CHO cells expressing sf1b-E2, 10 ug/ml
[4] = biological target: HCV E2 protein of genotype 1a expressed by vaccinia virus construct Q1a (Hepatitis C virus genotype 1a); assay: competition on GNA-captured E2; 20 µg/ml competitor against biotinylated CBH-4G
[5] = biological target: HCV E2 protein of genotype 2b expressed by vaccinia virus construct Q2b (Hepatitis C virus genotype 2b); assay: competition ELISA; 20 µg/ml competitor against 2 µg/ml biotinylated CBH-2
[6] = biological target: HCV E2 protein of genotype 1a expressed by vaccinia virus construct Q1a (Hepatitis C virus genotype 1a); assay: as above
[7] = biological target: HCV E2 protein of genotype 2a expressed by vaccinia virus construct Q2a (Hepatitis C virus genotype 2a); assay: as above
[8] = biological target: HCV E2 protein of genotype 1b expressed by vaccinia virus construct Q1b (Hepatitis C virus genotype 1b); assay: as above
[9] = biological target: HCV E2 protein of genotype 1a expressed by vaccinia virus construct Q1a (Hepatitis C virus genotype 1a); assay: competition ELISA; competitor CBH-2 against biotinylated CBH-5
[10] = biological target: HCV E2 protein of genotype 1b expressed by vaccinia virus construct Q1b (Hepatitis C virus genotype 1b); assay: as above
[11] = biological target: HCV E2 1a protein produced in mammalian cells (Rosa et al.) (Hepatitis C virus genotype 1a); assay: NOB assay, inhibition of E2 binding to CD81 expressing Molt-4 cells, flow cytometry
[12] = biological target: HCV 1b E2 deletion construct pDC-644 (Hepatitis C virus genotype 1b); assay: flow cytometry, transiently transfected HEK-293 cells, 10 ug/ml
[13] = biological target: HCV 1b E2 deletion construct pDN-447 (Hepatitis C virus genotype 1b) (UniProt P29846); assay: as above
[14] = biological target: HCV 1b E2 deletion construct pDC-579 (Hepatitis C virus genotype 1b); assay: as above
[15] = biological target: HCV 1b E2 deletion construct pDN-470 (Hepatitis C virus genotype 1b) (UniProt Q9WMX2); assay: as above
[16] = biological target: HCV 1b E2 (Q1b) bound to GST-CD81-LEL (Hepatitis C virus genotype 1b; human) (UniProt P60033); assay: ELISA, 1b E2 captured by CD81-LEL; 50% of maximum binding
[17] = biological target: HCV E2 1a protein produced in mammalian cells (Rosa et al.) (Hepatitis C virus genotype 1a); assay: NOB assay
[18] = biological target: HCV 1b E2 deletion construct pDN-447 (Hepatitis C virus genotype 1b) (UniProt P29846); assay: GNA capture ELISA, HEK-293 extracts
[19] = biological target: HCV 1b E2 deletion construct pDN-470 (Hepatitis C virus genotype 1b) (UniProt Q9WMX2); assay: GNA capture ELISA, HEK-293 extracts
[20] = biological target: HCV E2 protein of genotype 2b expressed by vaccinia virus construct Q2b (Hepatitis C virus genotype 2b); assay: competition ELISA; competitor CBH-5 against biotinylated CBH-2
[21] = biological target: HCV E2 protein of genotype 1a expressed by vaccinia virus construct Q1a (Hepatitis C virus genotype 1a); assay: as above
[22] = biological target: HCV E2 protein of genotype 2a expressed by vaccinia virus construct Q2a (Hepatitis C virus genotype 2a); assay: as above
[23] = biological target: HCV E2 protein of genotype 1b expressed by vaccinia virus construct Q1b (Hepatitis C virus genotype 1b); assay: as above
[24] = biological target: HCV E2 protein of genotype 1a expressed by vaccinia virus construct Q1a (Hepatitis C virus genotype 1a); assay: competition ELISA; 25 µg/ml competitor against 5 µg/ml biotinylated CBH-5
[25] = biological target: HCV E2 protein of genotype 1b expressed by vaccinia virus construct Q1b (Hepatitis C virus genotype 1b); assay: as above
[26] = biological target: denatured HCV 1b E2 protein (Q1b) (Hepatitis C virus genotype 1b); assay: GNA capture ELISA, denatured against native E2 (FIG. 9)
[27] = biological target: HCV 1b E2 construct sf1b-E2 (amino acids 384-661 in pDisplay) (influenza virus; Hepatitis C virus genotype 1b); assay: flow cytometry, CHO cells expressing sf1b-E2

HMAb CBH-2 (antibody)
OD [1]: 0.1 to 0.5 od | OD [2]: > 0.5 od | mean fluorescence [3]: 338 | percent inhibition of biotinylated CBH-4G binding [4]: < 50% | percent inhibition of biotinylated CBH-2 binding [5]: > 75% | percent inhibition of biotinylated CBH-2 binding [6]: > 75% | percent inhibition of biotinylated CBH-2 binding [7]: > 75% | percent inhibition of biotinylated CBH-2 binding [8]: > 75% | percent inhibition of biotinylated CBH-5 binding [9]: 50% | percent inhibition of biotinylated CBH-5 binding [10]: 50% | IC50 [11]: 5 µg/mL

HMAb CBH-4B (antibody)
mean fluorescence [12]: 18 | mean fluorescence [13]: 21 | mean fluorescence [14]: 2 | mean fluorescence [15]: 9 | EC50 [16]: 0.4 µg/mL | IC50 [17]: > 25 µg/mL | OD [1]: > 0.5 od | OD [18]: > 0.5 od | OD [2]: > 0.5 od | OD [19]: > 0.5 od | mean fluorescence [3]: 241 | percent inhibition of biotinylated CBH-4G binding [4]: < 50%

HMAb CBH-5 (antibody)
mean fluorescence [12]: 28 | mean fluorescence [13]: 2 | mean fluorescence [14]: 2 | mean fluorescence [15]: 2 | percent inhibition of biotinylated CBH-2 binding [20]: 80% | percent inhibition of biotinylated CBH-2 binding [21]: 80% | percent inhibition of biotinylated CBH-2 binding [22]: 80% | percent inhibition of biotinylated CBH-2 binding [23]: 80% | percent inhibition of biotinylated CBH-5 binding [24]: 85% | percent inhibition of biotinylated CBH-5 binding [25]: 85% | OD [1]: > 0.5 od | OD [2]: > 0.5 od | mean fluorescence [3]: 546 | percent inhibition of biotinylated CBH-4G binding [4]: < 50% | percent inhibition of biotinylated CBH-2 binding [5]: > 75% | percent inhibition of biotinylated CBH-2 binding [6]: > 75% | percent inhibition of biotinylated CBH-2 binding [7]: > 75% | percent inhibition of biotinylated CBH-2 binding [8]: > 75% | IC50 [11]: 2 µg/mL

HMAb CBH-7 (antibody)
mean fluorescence [12]: 27 | mean fluorescence [13]: 26 | mean fluorescence [14]: 2 | mean fluorescence [15]: 14 | OD [1]: > 0.5 od | OD [18]: > 0.5 od | OD [2]: > 0.5 od | OD [19]: > 0.5 od | mean fluorescence [3]: 303 | percent inhibition of biotinylated CBH-4G binding [4]: < 50% | percent inhibition of biotinylated CBH-2 binding [6]: 60% | IC50 [11]: 7 µg/mL

HMAb CBH-8C (antibody)
OD [1]: > 0.5 od | OD [2]: > 0.5 od | mean fluorescence [3]: 282 | percent inhibition of biotinylated CBH-4G binding [4]: < 50% | percent inhibition of biotinylated CBH-2 binding [5]: > 75% | percent inhibition of biotinylated CBH-2 binding [6]: > 75% | percent inhibition of biotinylated CBH-2 binding [7]: > 75% | percent inhibition of biotinylated CBH-2 binding [8]: > 75% | IC50 [11]: 10 µg/mL

HMAb CBH-8E (antibody)
percent inhibition of biotinylated CBH-5 binding [24]: 75% | percent inhibition of biotinylated CBH-5 binding [25]: 75% | OD [1]: 0.1 to 0.5 od | OD [2]: > 0.5 od | mean fluorescence [3]: 408 | percent inhibition of biotinylated CBH-4G binding [4]: < 50% | percent inhibition of biotinylated CBH-2 binding [5]: > 75% | percent inhibition of biotinylated CBH-2 binding [6]: > 75% | percent inhibition of biotinylated CBH-2 binding [7]: > 75% | percent inhibition of biotinylated CBH-2 binding [8]: > 75% | IC50 [11]: 8 µg/mL

HMAb CBH-17 (antibody)
percent of reactivity retained with denatured E2 [26]: 90% | fold reduced staining relative to the other HMAbs [27]: 10 fold | EC50 [16]: 3 µg/mL | IC50 [17]: > 25 µg/mL | OD [18]: > 0.5 od | OD [2]: > 0.5 od | OD [19]: > 0.5 od | mean fluorescence [3]: 23 | percent inhibition of biotinylated CBH-4G binding [4]: < 50%
